{"source": "patent US20050036988A1", "about": "(published 2005)", "proteins": {"B1": {"name": "rat stellate cell activation-associated protein (STAP) (enzyme, UniProt Q921A4 1-190, looked up)", "chain": "MEKVPGDMEIERRERNEELSEAERKAVQATWARLYANCEDVGVAILVRFFVNFPSAKQYFSQFKHMEDPLEMERSPQLRKHACRVMGALNTVVENLHDPDKVSSVLALVGKAHALKHKVEPMYFKILSGVILDVIAEEFANDFPVETQKAWTKLRGLIYSHVTAAYKEVGWVQQVPNTTTLPATLPSSGP", "notes": "Detected in rat liver tissue lysates and sections, either endogenous or expressed from rAAV/rSTAP; Immunoblots show monomeric and dimeric forms; also called rSTAP; rat STAP"}}, "target": "the molecule itself", "assay": "western immunoblotting of rat liver after chronic CCl4 injury", "data": [{"protein": "B1", "values": [{"measurement": "binding result", "value": "binds"}]}]}
